# Data taken from the supplement of paper PMC5998384.
# Assays:
# HeLa Kyoto [1] = assay: solubility in G1/S (NP-40 vs SDS abundance) (log2 ratio); higher = more soluble; conditions: cell cycle stage: G1/S
# HeLa Kyoto [2] = assay: melting temperature (median over replicates), in situ; higher = more thermally stable
# HeLa Kyoto [3] = assay: solubility change mitosis vs G1/S (difference of NP-40 vs SDS log2 ratios) (log2 ratio difference); higher = more soluble in mitosis
# HeLa Kyoto [4] = assay: thermal stability score vs G1/S (z-score of summed log2 fold changes over temperatures); higher = more thermally stable than in G1/S
# [5] = cell cycle stage: early G1 (4.5 h after nocodazole release)
# 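Wherever melting temperature (median over replicates), in situ is given: HeLa Kyoto cells synchronized by double thymidine or nocodazole block, proteins quantified by TMT10plex mass spectrometry, three independent biological replicates.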
# 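Wherever solubility change mitosis vs G1/S (difference of NP-40 vs SDS log2 ratios) is given: synchronized HeLa Kyoto cells (double thymidine block for G1/S, nocodazole release for mitosis), protein amounts in NP-40 versus SDS lysates quantified by mass spectrometry, three biological replicates.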
# 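Wherever solubility in G1/S (NP-40 vs SDS abundance) is given: HeLa Kyoto cells arrested at G1/S by double thymidine block, proteins quantified by TMT10plex mass spectrometry in mild NP-40 versus SDS extracts, three biological replicates.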
# 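Wherever thermal stability score vs G1/S (z-score of summed log2 fold changes over temperatures) is given: synchronized HeLa Kyoto cells, proteins quantified by TMT10plex mass spectrometry, three biological replicates, mitosis taken 0.5 h after nocodazole release, G1/S directly after double thymidine block.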
Sequence,solubility in G1/S (log2) (HeLa Kyoto [1]),melting temperature (HeLa Kyoto [2]; cell cycle stage: G1/S) [°C],melting temperature (HeLa Kyoto [2]; cell cycle stage: mitosis) [°C],solubility change mitosis (log2) (HeLa Kyoto [3]),thermal stability score (HeLa Kyoto [4]; [5]),thermal stability score (HeLa Kyoto [4]; cell cycle stage: mitosis)
MRTDSGARLEEGHLRPPRALPPVPSQDDIPLSRPKKKKPRTKNTPASASLEGLAQTAGRRPSEGNEPSTKELKEHPEAPVQRRQKKTRLPLELETSSTQKKSSSSSLLRNENGIDAEPAEEAVIQKPRRKTKKTQPAELQYANELGVEDEDIITDEQTTVEQQSVFTAPTGISQPVGKVFVEKSRRFQAADRSELIKTTENIDVSMDVKPSWTTRDVALTVHRAFRMIGLFSHGFLAGCAVWNIVVIYVLAGDQLSNLSNLLQQYKTLAYPFQSLLYLLLALSTISAFDRIDFAKISVAIRNFLALDPTALASFLYFTALILSLSQQMTSDRIHLYTPSSVNGSLWEAGIEEQILQPWIVVNLVVALLVGLSWLFLSYRPGMDLSEELMFSSEVEEYPDKEKEIKASS [TMEM237],-0.0506,54.9,55.4,-0.0698,-4.81,-5.57
MAAAGAPDGMEEPGMDTEAETVATEAPARPVNCLEAEAAAGAAAEDSGAARGSLQPAPAQPPGDPAAQASVSNGEDAGGGAGRELVDLKIIWNKTKHDVKFPLDSTGSELKQKIHSITGLPPAMQKVMYKGLVPEDKTLREIKVTSGAKIMVVGSTINDVLAVNTPKDAAQQDAKAEENKKEPLCRQKQHRKVLDKGKPEDVMPSVKGAQERLPTVPLSGMYNKSGGKVRLTFKLEQDQLWIGTKERTEKLPMGSIKNVVSEPIEGHEDYHMMAFQLGPTEASYYWVYWVPTQYVDAIKDTVLGKWQYF [UBFD1],0.522,51.5,52.1,0.0325,-0.222,-0.699
MDTKEEKKERKQSYFARLKKKKQAKQNAETASAVATRTHTGKEDNNTVVLEPDKCNIAVEEEYMTDEKKKRKSNQLKEIRRTELKRYYSIDDNQNKTHDKKEKKMVVQKPHGTMEYTAGNQDTLNSIALKFNITPNKLVELNKLFTHTIVPGQVLFVPDANSPSSTLRLSSSSPGATVSPSSSDAEYDKLPDADLARKALKPIERVLSSTSEEDEPGVVKFLKMNCRYFTDGKGVVGGVMIVTPNNIMFDPHKSDPLVIENGCEEYGLICPMEEVVSIALYNDISHMKIKDALPSDLPQDLCPLYRPGEWEDLASEKDINPFSKFKSINKEKRQQNGEKIMTSDSRPIVPLEKSTGHTPTKPSGSSVSEKLKKLDSSRETSHGSPTVTKLSKEPSDTSSAFESTAKENFLGEDDDFVDLEELSSQTGGGMHKKDTLKECLSLDPEERKKAESQINNSAVEMQVQSALAFLGTENDVELKGALDLETCEKQDIMPEVDKQSGSPESRVENTLNIHEDLDKVKLIEYYLTKNKEGPQVSENLQKTELSDGKSIEPGGIDITLSSSLSQAGDPITEGNKEPDKTWVKKGEPLPVKLNSSTEANVIKEALDSSLESTLDNSCQGAQMDNKSEVQLWLLKRIQVPIEDILPSKEEKSKTPPMFLCIKVGKPMRKSFATHTAAMVQQYGKRRKQPEYWFAVPRERVDHLYTFFVQWSPDVYGKDAKEQGFVVVEKEELNMIDNFFSEPTTKSWEIITVEEAKRRKSTCSYYEDEDEEVLPVLRPHSALLENMHIEQLARRLPARVQGYPWRLAYSTLEHGTSLKTLYRKSASLDSPVLLVIKDMDNQIFGAYATHPFKFSDHYYGTGETFLYTFSPHFKVFKWSGENSYFINGDISSLELGGGGGRFGLWLDADLYHGRSNSCSTFNNDILSKKEDFIVQDLEVWAFD [NCOA7],0.0391,51,50.9,-0.15,-0.286,-0.429
MAGSVADSDAVVKLDDGHLNNSLSSPVQADVYFPRLIVPFCGHIKGGMRPGKKVLVMGIVDLNPESFAISLTCGDSEDPPADVAIELKAVFTDRQLLRNSCISGERGEEQSAIPYFPFIPDQPFRVEILCEHPRFRVFVDGHQLFDFYHRIQTLSAIDTIKINGDLQITKLG [LGALSL],0.36,53.3,54,-0.16,0.0977,-0.222
